# Measurements published in patent US20120301468A1, “ANTI-MN ANTIBODIES AND METHODS OF USING SAME” (BAYER HEALTHCARE LLC, priority 2005, published 2012).
# Legend:
# [1] = test system: MaTu human mammary carcinoma xenograft; details: MaTu xenograft; 30 mg/kg immunoconjugate; i.v. Q4Dx3
# Method: Anti-MN antibodies were conjugated to cytotoxic small molecules using protocols that are known in the art (e.g., Liu, et al., Proc. Natl. Acad. Sci. 93:8618-8623, 1996). Human mammary xenograft, MaTu cells were maintained as adherent cultures in RPMI supplemented with 10% FBS. Ncr nude mice (8-12 weeks of age) were inoculated subcutaneously in the right flank with 5×10^6 cells in 0.1 mL of 80% matrigel/20% HBSS. When tumors reached an average size of ˜180 mg (6 days), treatment was initiated. Monoclonal antibodies conjugated to cytotoxic small molecules were administered i.v. once every four days (Q4Dx3) at a dose of 10 mg/kg. […] The length and width of each tumor was measured by using an electronic caliper 2-3 times per week and tumor weights (mg) were calculated based on the formula of [length (mm)×width (mm)^2]/2. […] Tumor growth inhibition (TGI) was calculated as 1−T/C×100, where T=final tumor weights from a treated group, and C=final tumor weights from the control group.
# The in vivo anti-tumor effect of 3ee9/MMAE was examined in 6 different human xenograft tumor models. […] The human tumor xenograft models evaluated included the MaTu human mammary carcinoma model, the HT-29 and Colo-205 human colo-rectal carcinoma (CRC) models, PC3MM2 prostate carcinoma model, the HCT-15 multi-drug resistant (P-gp) CRC model, and the MiaPaCa2 human pancreatic model. […]
# [2] = test system: adhesion of MaTu cells to MN-coated wells; assay: Cell adhesion assay; assay type: cell-based, human; details: 100 μg antibody; 5000 MaTu cells
# Method: Fifty (50) μL of a 1 μg/mL solution of purified MN in PBS was adsorbed onto a non-treated 96-well plate overnight at 4° C. The solution was removed, and the wells rinsed 3× with PBS. The wells were blocked for 1 hour with 200 μL 50% FBS in RPMI1640 media. The wells were then treated with 100 μg 1e4 anti-MN antibody in 1% BSA in PBS, control IgG in 1% BSA in PBS or 1% BSA in PBS. After washing with PBS, 5000 MaTu cells (MN+ cells) were added to the wells and the plate incubated overnight at 37° C. at 5% CO2. The ability of anti-MN antibodies to block adhesion of MaTu cells to MN-coated wells was assessed after washing with PBS.
# [3] = test system: MN-negative cells (DLD1); assay: Antibody internalization (Cellomics), DLD1; assay type: cell-based
# [4] = test system: MN-expressing cells (PC3 mm2); assay: Antibody internalization (Cellomics), PC3 mm2; assay type: cell-based, human
# [5] = test system: MN-expressing PC3 mm2 cells; assay: In vitro cytotoxicity, PC3 mm2
# [6] = test system: MN+ (PC3 mm2) cells; assay: FACS cell binding, PC3 mm2 cells; assay type: cell-based, human; details: MN+ cells (PC3 mm2, FIGS. 10b, 10c)
# Method: (§1) Cells may be assayed for MN expression as a diagnostic tool. Adherent MN-expressing PC-3 mm2 cells and non-MN expressing DLD1 cells were detached from their flasks with 1:10 trypsin/Versene in PBS solution for 5 to 10 minutes. Cells were spun down (1000 rpm, 5 minutes), washed once with ice cold RPMI 10% FBS, and resuspended in ice-cold staining buffer (Ca^+ Mg^+-free PBS, 2% BSA, and 0.05% sodium azide) at 6×10^6 cells/ml. Primary antibody, human anti-MN IgG1, or control human IgG1 antibody at 25 μg/mL were incubated with 6×10^5 cells on ice for 1 hour. The unbound antibody was washed from the cells with the ice-cold staining buffer. The cells were fixed with 2% formaldehyde in PBS for 10 minutes, then washed twice with staining buffer. The cell pellet was resuspended in 100 μl ice cold staining buffer containing anti-human Alexa fluor 488 secondary antibody (final conc. 1:200, Molecular Probes/Invitrogen, Carlsbad, Calif.), and incubated on ice for 1 hour. The unbound antibody was washed from the cells two times with flow buffer (PBS containing 2% BSA), and the cells were resuspended in 1 mL flow buffer. FACS analysis of the resuspended cells was performed on a […] FACS Caliber instrument.
# [7] = test system: MN+ cells (MaTu); assay: In vitro cytotoxicity, MaTu
# [8] = test system: MN-negative DLD cells; assay: FACS cell binding, DLD cells; assay type: cell-based
# Method: as §1
# The MN antibody G250, a humanized IgG1 antibody, (Wilex) was used as a reference throughout the in vitro studies.
# [9] = molecular target: MN (Homo sapiens, UniProt Q16790); assay: Immunoprecipitation of biotinylated cell surface proteins; assay type: binding; design: incubated with cell lysates of MN+ (Pc3 mm2) and MN− (DLD-1) cell lines that had been selectively labeled with biotin; endogenous in cells; host or cells: PC-3 mm2 (MN+); DLD-1 as the MN- control; details: biotin-labeled lysates of MN+ (Pc3 mm2) and MN− (DLD-1) cell lines
# Method: To further explore specificity, various candidate antibodies including the antibody portion of 3ee9/MMAE (3ee9) and the reference antibody G250 were incubated with cell lysates of MN+ (Pc3 mm2) and MN− (DLD-1) cell lines that had been selectively labeled with biotin. Complexes between the antibodies and cellular proteins were immuno-precipitated and the co-precipitated antigens visualized using immunoblots developed with enzyme-linked streptavidin.
Molecule,anti-tumor effect [1],inhibition of cell adhesion [2],internalization [3],internalization [4],cytotoxicity [5],cell binding by FACS [6],cytotoxicity [7],cell binding by FACS [8],co-immunoprecipitated proteins (specificity) [9]
"1e4: anti-MN monoclonal IgG1; CDRs SEQ ID NOS: 59, 65, 72, 107, 109, and 111 (antibody, V domains shown) VH: ELVESGGGLVQPGGSLRLSCAASGFTFSNNAMNWVRQAPGKGLEWVSGISYDSSKTYYADSVKGRFTISRDNSKNTLYLQMNSLRAEDTAVYYCARLTYTGAYRWGQGTLVTVSS VL: DIELTQPPSVSVAPGQTARISCSGDNLGSYYVHWYQQKPGQAPVLVIYDDNNRPSGIPERFSGSNSGNTATLTISGTQAEDEADYYCQSYDFGKVVFGGGTKLTVL",no effect,inhibits cell adhesion,,,,,,,
1E4 immunoconjugate (conjugate) VH: QVELVESGGGLVQPGGSLRLSCAASGFTFSNNAMNWVRQAPGKGLEWVSGISYDSSKTYYADSVKGRFTISRDNSKNTLYLQMNSLRAEDTAVYYCARLTYTGAYRWGQGTLVTVSS VL: DIELTQPPSVSVAPGQTARISCSGDNLGSYYVHWYQQKPGQAPVLVIYDDNNRPSGIPERFSGSNSGNTATLTISGTQAEDEADYYCQSYDFGKVVFGGGTKLTVL,significant anti-tumor effect,,not by MN− (DLD1) cells,internalized by MN+ cells (PC3 mm2),selectively cytotoxic for MN+ cells,exhibited binding to MN+ cells,selectively cytotoxic for MN+ cells,not to MN− cells,
"5aa3: anti-MN antibody; CDRs SEQ ID NOS: 81, 83, 85, 104, 105, and 106 (antibody, V domains shown) VH: QVELVQSGAEVKKPGESLKISCKGSGYSFTGYISWVRQAPGKGLEWMGIIYPGDSYTNYSPSFQGQVTISADKSISTAYLQWSSLKASDTAMYYCARYSGPNWDVMDSWGQGTLVTVSS VL: DIVLTQPPSVSGAPGQRVTISCSGSSSNIGSYYVNWYQQLPGTAPKLLIYADDKRPSGVPDRFSGSKSGTSASLAITGLQSEDEADYYCQSYDSTKDDSVFGGGTKLTVL",,,,,,,,,co-immunoprecipitated several other proteins in addition to MN
1aa1 immunoconjugate (conjugate) VH: QVELVQSGAEVKKPGASVKVSCKASGYTFTTNYMHWVRQAPGQGLEWMGIINPHNGSTSYAQKFQGRVTMTRDTSISTAYMELSSLRSEDTAVYYCARGRYFLMDVWGQGTLVTVSS VL: DIQMTQSPSSLSASVGDRVTITCRASQNILSYLNWYQQKPGKAPKLLIYAASSLQSGVPSRFSGSGSGTDFTLTISSLQPEDFAVYYCQQYGSVPTFGQGTKVEIK,,,,,selectively cytotoxic for MN+ cells,exhibited binding to MN+ cells,,not to MN− cells,
